Results from patent publication US20070134248A1 (GENITOPE, published 2007).

Key:
116 = molecular target: T1, 116; assay: ELISA
T1 construct: immunogen of fusions 15, 16 and 18; coated in its fully human form; also called PIN116; PIN116 fully human Id protein (HV1-46 / LV2-8)
From the text: (§1) Before specificity screening, all of the clonal immunogen-positive hybridoma supernatants were re-screened on the immunogen, a non-family member Id protein, and KLH, if animals were immunized with Id protein that has been conjugated KLH. As described above, this screen identifies HC-specific clones but not mAbs against the light chain constant region. Clones identified positive to the immunogen and KLH were […]. Those found positive to the immunogen but not to the non-family member Id protein or KLH were tittered on the immunogen. In addition to normalizing for different binding affinities and concentrations, each hybridoma supernatant was titered on the fully human form of the Id protein used as the immunogen(s) for the V regions. The titer or dilution resulting in an ELISA absorbance of 2.5 to 3 OD after 30 min. incubation time was then used. Hybridoma specificity was determined by screening against available Id proteins expressing the same HV and KV or LV as well as different HV, KV and LV. The final ELISA results are expressed as follows: 0 (<0.5 OD),1 (0.5-1.0 OD), or 4 (1-4 OD). Positive hybridoma supernatants are categorized according to specificity: anti-Id, anti-constant region (HC, KC or LC), or V region (HV, KV, LV family or family member).
(§2) In general, the fully human Id protein or proteins containing the immunogen V regions were coated onto 96-well ELISA plates at 2.5-5 ug/mL in carbonate buffer pH 9.6 and incubated at 4° C. for up to 14 days. On the day of the ELISA, plates were brought to RT and blocked with Tris-Tween-20, pH 7.6 for 15-60 min. at RT. Following a NaCl and Triton X-100 wash, diluted hybridoma cell culture supernatants were incubated overnight at 4° C. Hybridoma supernatant dilutions ranged from 1:2 to 1:25 and were prepared in PBS with 5% BSA. Plates were washed and incubated with HRP-conjugated goat anti-mouse IgG-specific detecting antibody. A chromogenic substrate (TMB) was used to measure the amount of mouse antibody bound to each well. The reaction was stopped at or before 30 minutes with IN H2SO4 and plates were read immediately. Absorbency readings at 450 nm ranging between 0-4 OD and using Molecular Devices plate reader and SOFTMAX PRO software.

647 = molecular target: T2, 647; assay: ELISA
T2 construct: immunogen of fusion 17; also called PIN647; PIN647 fully human Id protein (HV3-48 / LV2-14)
From the text: as §1, §2

662 = molecular target: T3, 662; assay: ELISA
T3 construct: also called PIN662; PIN662 fully human Id protein (HV3-48 / LV2-8)
From the text: as §1, §2

[1] = molecular target: T4, PIN574 fully human Id protein (HV4-39 / LV1-40) (human); assay: ELISA
T4 construct: patient tumour-derived idiotype immunoglobulin used as antigen; fully human form; also called Immunogen (for 20H5); not shown: human immunoglobulin heavy chain constant region, isotype G3 (HCG3); human lambda light chain constant region (LC)
From the text: as §1, §2

628 = molecular target: T5, 628; assay: ELISA
T5 construct: immunogen of fusions 20 and 21; also called PIN628; PIN628 fully human Id protein (HV3-7 / KV4-1)
From the text: as §1, §2

913 = molecular target: T6, 913; assay: ELISA
T6 construct: also called PIN913; PIN913 fully human Id protein (HV4-59 / KV4-1)
From the text: as §1, §2

[2] = molecular target: T7, PIN185 fully human Id protein (human); assay: ELISA
T7 construct: patient idiotype immunoglobulin used as control antigen
From the text: as §1, §2

[3] = molecular target: T8, PIN149 fully human Id protein (HV3-23 / KV4-1) (human); assay: ELISA
T8 construct: patient tumour-derived idiotype immunoglobulin used as antigen; recombinant, two identical heavy and two identical light chains; also called Immunogen (for 3C9, 6C9, 10H7, 15E1); not shown: human immunoglobulin heavy chain constant region, isotype G3 (HCG3); human kappa light chain constant region (KC)
From the text: as §1, §2

[4] = molecular target: T8, PIN149 fully human Id protein (HV3-23 / …); assay: SPR (BIACORE 2000), mAb captured on anti-mouse surface, fully human Id protein as analyte, 25 C, single site model
Protocol: (§3) Binding constants were also determined for three of the sequenced clones (3C9, 10H7, and 20H5), as well as for two additional clones (6C9 and 15E1). The association and disassociation rates were measured by surface plasmon resonance using a BIACORE 2000 machine.
(§4) In addition, based on ELISA results, PIN185 was used as a positive control Id protein for 10H7 and 15E1 and a negative control Id protein for 3C9 and 6C9 and PIN149 was used as a non-binding Id protein for 20H5. Each mAb was captured onto an anti-mouse surface and tested for binding to the fully human Id protein. Following the mAb capture phase of the assay for the (@2 ug/ml), the fully human Id proteins were all diluted to a starting concentration of 250 nM and tested in a three fold dilution series. Each concentration was tested in duplicate. The running buffer contained PBS plus 0.005% tween-20 and 0.1 mg/ml BSA as a carrier. Binding data were collected at 25° C. […] The other data sets all fit well to a single site interaction model.

[5] = molecular target: T7, PIN185 fully human Id protein; assay: as above
Protocol: as §3, §4

[6] = molecular target: T8, PIN149 fully human Id protein (HV3-23 / …); assay: SPR (BIACORE 2000), mAb captured on anti-mouse surface, fully human Id protein as analyte
Protocol: as §3, §4

[7] = molecular target: T4, PIN574 fully human Id protein (HV4-39 / …); assay: SPR (BIACORE 2000), mAb captured on anti-mouse surface, fully human Id protein as analyte, 25 C, single site model
Protocol: as §3, §4

T8 sequence (VH, as listed by the source, chain 1 of 2): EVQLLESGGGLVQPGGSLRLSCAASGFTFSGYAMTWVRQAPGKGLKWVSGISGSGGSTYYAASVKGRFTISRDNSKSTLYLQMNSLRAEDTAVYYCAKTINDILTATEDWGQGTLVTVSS
T8 sequence (VL, as listed by the source, chain 2 of 2): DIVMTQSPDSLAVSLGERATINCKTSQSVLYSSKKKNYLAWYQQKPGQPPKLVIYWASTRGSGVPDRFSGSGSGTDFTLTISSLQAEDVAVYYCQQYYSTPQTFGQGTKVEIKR
T4 sequence (VH, as listed by the source, chain 1 of 2): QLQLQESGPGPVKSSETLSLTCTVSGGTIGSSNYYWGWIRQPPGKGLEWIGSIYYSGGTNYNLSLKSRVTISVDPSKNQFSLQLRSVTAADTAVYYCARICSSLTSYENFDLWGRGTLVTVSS
T4 sequence (VL, as listed by the source, chain 2 of 2): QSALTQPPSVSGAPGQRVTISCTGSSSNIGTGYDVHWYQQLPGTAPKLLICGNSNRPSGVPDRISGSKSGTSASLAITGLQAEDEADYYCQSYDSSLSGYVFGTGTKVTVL
T5 sequence (VH, as listed by the source, chain 1 of 2): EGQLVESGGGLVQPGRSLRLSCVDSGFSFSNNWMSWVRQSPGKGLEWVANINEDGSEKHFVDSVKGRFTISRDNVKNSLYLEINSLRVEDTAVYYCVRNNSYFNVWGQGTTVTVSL
T5 sequence (VL, as listed by the source, chain 2 of 2): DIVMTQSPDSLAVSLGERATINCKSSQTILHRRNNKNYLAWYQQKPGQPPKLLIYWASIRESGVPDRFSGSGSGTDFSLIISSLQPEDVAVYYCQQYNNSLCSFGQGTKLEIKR
T3 sequence (heavy, as listed by the source): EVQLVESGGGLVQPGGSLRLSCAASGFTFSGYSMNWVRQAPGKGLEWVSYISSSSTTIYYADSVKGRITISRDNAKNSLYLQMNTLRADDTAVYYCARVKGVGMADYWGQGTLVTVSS
T1 sequence (VH, as listed by the source, chain 1 of 2): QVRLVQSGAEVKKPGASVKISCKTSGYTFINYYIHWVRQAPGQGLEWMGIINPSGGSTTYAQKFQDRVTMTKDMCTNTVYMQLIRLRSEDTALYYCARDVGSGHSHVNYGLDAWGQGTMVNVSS
T1 sequence (V domain, as listed by the source, chain 2 of 2): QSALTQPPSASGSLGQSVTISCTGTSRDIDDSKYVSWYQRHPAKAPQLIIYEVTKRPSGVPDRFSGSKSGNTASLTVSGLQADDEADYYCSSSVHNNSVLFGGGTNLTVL
T6 sequence (heavy, as listed by the source): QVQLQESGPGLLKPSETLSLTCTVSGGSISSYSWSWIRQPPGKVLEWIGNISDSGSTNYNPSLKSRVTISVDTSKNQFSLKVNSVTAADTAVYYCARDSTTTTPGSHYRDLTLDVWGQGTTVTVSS
T2 sequence (VH, as listed by the source, chain 1 of 2): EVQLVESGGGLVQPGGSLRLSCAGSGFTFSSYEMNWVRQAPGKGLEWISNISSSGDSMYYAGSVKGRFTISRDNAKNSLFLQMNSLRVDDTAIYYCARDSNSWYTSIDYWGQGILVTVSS
T2 sequence (VL, as listed by the source, chain 2 of 2): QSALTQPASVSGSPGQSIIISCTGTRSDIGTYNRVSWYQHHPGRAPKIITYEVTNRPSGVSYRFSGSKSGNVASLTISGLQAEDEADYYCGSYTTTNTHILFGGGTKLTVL

Binder | ELISA score 662 | ELISA score 628 | ELISA score 913 | ELISA score [2] | Kd [4] [nM] | koff [4] [s⁻¹] | kon [4] [M⁻¹ s⁻¹] | other results
mAb clone 12C3 (antibody, V domains shown, mouse hybridoma mAb from fusions 20/21 (PIN628 V regions as immunogen)) VH: EVKLVESGGGLVQPGGSLSLSCAASGFTYTDYYMNWVRQPPGKALEWLALIRNKANGYTTEYSASLKGRFTISRDNSQSILYLQMNALRAEDSATYYCVRENINYYFDYWGQGTTLTVSS VL: DIVLTQSPASLAVSLGQRATISCRASESVEYFGASLMQWYQQKSGQPPKLLIRAATNVESGVPARFSGSGSGTDFSLNIHPVEEDDIAMYFCQQSRKVPWTFGGGTKLEIKR |  | 4 | 4 | 4 |  |  |  | 
mAb clone 10H7 (antibody, V domains shown, mouse hybridoma mAb from fusion 14 (immunogen PIN149 chimera-KLH)) VH: EVQLVESGGGLVKPGGSLKLSCTASGFTFSSYAMSWVRQSPEKRLEWVAEISSGGIHTYYSDTVTGRFSISRDNAKNSTLYLEMNSLRSEDTAIYYCARETTGTWGQGTLVTVSA VL: QIVLTQSPAIMSASPGEKVTMTCSVSSSITYMHWFRQKPGTSPKLWIYTTSNLASGVPARFSGSGSGTSYSLTISRMEAEDAATYYCQQRSRYPFTFGSGTKLEIKR |  | 4 | 4 | 4 | 0.83 | 3.8e-05 | 45400 | ELISA score [3]: 4; Kd [5]: 3 nM; koff [5]: 9.9e-05 s⁻¹; kon [5]: 33200 M⁻¹ s⁻¹
mAb clone 3C9 (antibody, V domains shown) VH: EVQLQQSGPELEKPGASVKISCKASGYSFTAYNMNWVKQNNGKSLEWIGNIDPYHGGTNYNQKFKGKATLTVDKSSSTAYMQLKSLTSEDYAVYYCARGGGDWSWFAYWGQGTLVTVSA VL: DIVMTQSHKFMSTSVGDRVSITCKASQDVNTAVAWYQQKPGQSPKVLIYWASNRHTGVPDRFTGSGSGTDYTLTISSMQAEDLALYYCHQHYSTPWTFGGGTKLEIER |  |  |  |  | 1.78 | 0.000134 | 74900 | 
mAb clone 20H5 (antibody, V domains shown, mouse hybridoma mAb from fusion 10 (immunogen fully human PIN574 Id protein)) VH: QVQLKESGPDLVAPSQSLSITCTVSGFSLTSYGVHWVRQPPGKGLEWLVVIWSDGSTTNNSPLKSRLSISKDNSKSQVFLKMNSLQTDDTAMYYCARHWGTTVVDAMDYWGQGTSVTVSS VL: DIQMTQTTSSLSASLGDRVIISCRASQDIRNYLNWYQQKPDGTVKLLIYYTSQLHSGVPSRFSGSGSGTDYSLTINNLSEQEDIATYFCQQYDTLPWTFGGGTKLEIKR |  |  |  |  |  |  |  | binding result [6]: no binding; Kd [7]: 1.92 nM; koff [7]: 0.000146 s⁻¹; kon [7]: 75900 M⁻¹ s⁻¹

Second part, led by results:

ELISA score 662 | ELISA score 628 | ELISA score 913 | ELISA score [2] | Kd [4] [nM] | koff [4] [s⁻¹] | kon [4] [M⁻¹ s⁻¹] | Binder | other results
4 |  |  |  |  |  |  | mAb clone 15E8 (antibody, V domains shown, mouse hybridoma mAb from fusion 16 (immunogen unconjugated fully human PIN116)) VH: QVQLQQPGAELVMPGASVKMSCKASGYTFTDYWMHWVKQRPGQGLEWIGTIDTSDSYTNYNQKFKGKATLTVDESSSTAYMQLSSLTSEDSAVYYCVRWKKYGNYFFDYWGQGTTLTVSS VL: DIVMTQSHKFMSTSVGDRVSITCKASQDVNTAVAWYQQKPGQSPKLLIYWASTRHTGVPDRFTGSGSGTDFSLTISSVQAEDLGLYYCQQCYSTPYAFGGGTKLEIKR | ELISA score 116: 4; binding result 647: no binding; binding result [1]: no binding
4 |  |  |  |  |  |  | mAb clone 4H11 (antibody, V domains shown, mouse hybridoma mAb) VH: EVKLVESGGGLVKPGGSLKLSCAASGFAFSNYDMSWVRQTPEKRLEWVATIRSDDSYTYYPDSVKGRFTISRDNARNTLYLQMSSLRSEDTAFYYCARREGNYAMDYWGQGTSVTVSS VL: DIQMTQSPASLSVSVGETVTITCRASENIYSYLAWYQQKKGKSPQLLVYAATNLGDGVPTRFSGSGSGTQYSLKINSLQSEDFGSYYCQHFWGNPLTFGAGTKLELKR | binding result 116: no binding; ELISA score [1]: 4
